The values below come from a protein production outcome set (Wang et al. 2014).

A short description of the data set: label from the status in PepcDB records.
With “MIFEIIKIGSQPINFAYPIPLLSLLAFMLSGSGYNELIISYIFAFSFFTAANLWNHLNDAEDDLNAGRNYARFLIEHRKIVTEFVVAFYFVSFLLIFFISKSKEIALLLTGLSVVLTWLYSDKIFIGKIIRRFKEDYKTEVFTYILCSFSFPLSFWTIFSEISQVGVVFTLATGFTYLSGFFLKDLKDISADIKSGYRTLAVVLSPSTLLIISVMLFIASTFVVIFSSLLDVTPTSSLLVLTVYPPILFAIYKFHKEKWKITKNIISSLKIYTYSYLGFLIAFAIGCKL”, the protein production entry is “failed”.
To “MIGDGIENSPLLTDLAFPYRLLGAGKESRECLFLLHGSGVDETTLVPLARRIAPTATLVAARGRIPQEDGFRWFERIDPTRFEQKSILAETAAFAAFTNEAAKRHGLNLDHATFLGYSNGANLVSSLMLLHPGIVRLAALLRPMPVLDHVPATDLAGIRTLIIAGAADETYGPFVPALVTLLSRHGAEVDARIIPSGHDIGDPDAAIVRQWLAGPIAIAQAD” belongs “not failed”; to “MIGIVAAFEKVKIPEMGKSFGTGWLPPLPSLKDYTEESAQIPEMAEKLGIPTSRKETKTLELPVSIDFRNWCSPIEDQMDLGSCTAHAGVGVVEYFERRAFGKHIDGSRFFVYKTTRNLMGVKGDTGAWLRNTMGALALCGVPPEKYFPYTSRKTPGPDGEPTFDDEPSSFVYSLADNFEALNYFCHDPQGMNLPPEDVILSVKKYLAAGIPSMFGFYGFPSFKDTDVKGGIPFPGPDERSIWGHAVVAVGYDDNMKIRNTLSNKETTGAFLIRNSWGTAWGDKGYGWLPYEYALNKFALDFWSLISMKWVETGNFGLELESSRSRARETLSRDMPLPHALEHHHHHH”, “not failed”; to “MIGPENCNSVSEPIAYVIILAGGRSSRMGYDKAQVMVDGRRLIDLCLESIASVHAHPIVVSGQDLQLTAAVTQVMEEPAFGGPVAGIAAGMRCCDTKAGLIGVIAVDAPRSGNYLNQLRRVVLTHPEVGVAHAVVEGYDQPLLAVWRYEALTQALHALGSPRNVAAKRLLRSATTPVIAVPVDSSARDYDTVAELSALGRVRLRLEHHHHHH”, “failed”.
To “MIGQFLITFREALEAAIIVAIIIAYLKRTDREEQIRDVWIGVGLSVLASVVLGAIILGLYGGIEEKELFEGIASYLAVIVLTSMIYWMATKGRNIRAEIERKVSKAINPLALVGFTFIVVFREGLETVLFLTPFAIQDLGGTLMGLVSGIIGALILAYLIYGVGMRINLRTFFYYSSILLVFVAAGLAGYGTHELIEWAEEEGMNLGFIEETAYNLGIPEDSVFHHKGVIGSIFAVLFGYSVKMEWGRVIVQFGYLIVTLYLVLRAYGQETPTAKAEK” belongs “failed”.
On to “MIGVLSGFFVVWAIILVGMFVGRRNILGENARSVLSSLTFFVASPALLFETLSKAKLHDVFAAPLLVTAVGAVVTGLLFFLIAKFWLKRAMPEALMSSMSSSLANSANLGIPIAVFVLGDASYVAPLLIFQLAFFTPLYLMALDASTSSHRTTPLRFLLMIVKNPMIVGSALGLLVAGTGFHVPTLILEPIHLIGGAAIPAMLMSFGMSLNGSKPLRKASGRRVDTLLASGFKLIVHPLIAYLFARFALGMDGHALFAVVVTSALPTAQNVFVAANRYQAGITVAKDTVLITTIVAVPAMIAVALLLT”, for which the protein production result is “failed”.
To “MIHDLLLACRSHNPEQLGIKAFNETTVIDQFIHPCEREIFMDIIKIIKVYQEVEQFTHSSGRKSDTHGELPDSLHGYYLLNLAKGIEMALEEYYAEIGRLEKYCLGNERNSLSYVYNALYAKFPLLVFMRNLITEIHVLNLRGCVLLHNLHQQCEHGDIQLEKAIKIIMKPVKNAFFSSLAHWLLFGVIDDVHSEFFIKFTPTDAVDGSSFSKSATCSLLSAEKNPEDYIWQYEVNMSQLPGFFSIVLAEKVLFVGQTVLVFKMGRNVKVKNKTDPLAAKLAELDSDDIYQLWSGRESEFFKMVVDLSNEDTINVFRLEKVIIDIKNYVSARLSEIAVNEVDLERQMGLIKDFFLLGRGEFYLEFCSQMVGTMETYREERFKNVTRSFELAATVTGITDDLDKFSLICQRSTSEPDDTSDFNFLQGLSLKYEYEWPLNLLFSPTTIERYNNIFRFLLIIRTYQYEIQRVWAKQTWRAKSAKDVPPNNKIITLRNYLMFFLNNMQYYIQVDVLESQFGILMNVIKSRSDFEVIQRAHTVFLANVLSHCFLLNESETQLNVTGSQNRNPIYGTLLKLFGICEKFAHMTQTKDPSDDLEDEVDQLNESFGVQIASLIQLLVDVKSASCLGPLSQLLLRLDFNCWFSASHNTSA” belongs “failed”.
The result for “MIHDVDPTNDKYPAALRILHWVRALLTLGLIAAGWMMTVLADTVTEKFTLLYPWHKSFGVLVFLIVLAQLAIRAMSRLPGPAPLPAQERLLSQAVHVAMYALLLLVPLMGYAMSSSFTDSDGVFFFGIHLPELLPKDDDRFRLFQFLHKTLAYSLLALVILHVAGALKHRYFDKDRRTDVLPRII” reads “failed”; that for “MIHFSINKNLFLQALNTTKRAISSKNAIPILSTVKIDVTNEGITLIGSNGQISIENFISQKNEDAGLLITSLGSILLEASFFINVVSSLPDVTLDFKEIEQNQIVLTSGKSEITLKGKDSEQYPRIQEISASTPLILETKLLKKIINETAFAASTQESRPILTGVHFVLSQHKELKTVATDSHRLSQKKLTLEKNSDDFDVVIPSRSLREFSAVFTDDIETVEIFFANNQILFRSENISFYTRLLEGNYPDTDRLIPTDFNTTITFNVVNLRQSMERARLLSSATQNGTVKLEIKDGVVSAHVHSPEVGKVNEEIDTDQVTGEDLTISFNPTYLIDSLKALNSEKVTISFISAVRPFTLVPADTDEDFMQLITPVRTN”, “not failed”; that for “MIHGFLCSTKSALPHPLDDPAFVTASACRLASRPFRFMPQSSRRQNRSGTLVFANWNYVLLLIGVALIVVGFTAMYLEGQYLGFISLYVSPVLIIGGYAEIIYALLWAPDEQSAAEEQ”, “failed”.
Regarding “MIHYYKLFWINALNIKGRARRKEFWYPFLMNILINIMLEIIFFLLPIPAIIEDTVGWIVYILILVAMFTVTVRRFHDVGMTMLIPIIIFLIAVINDFSEFINSDIPTLDNSALTVIAVIFGVVYIVILIVSLAVCCTSGQKETNQYGVNPKAVE”, the protein production result is reported as “failed”.
To “MIIAGLDVGTTKVTTVIGELAPDGVLDIIGEGTVPSQGLRRGVVVNLERTTEAIRQSLFQAERVAGVKVERVVVGVGGPHLKSVTSHGLAAIRRGHTIAEADVERAIEQAKAYPFEGELELLHALPLEFKVDGQEGIRDPVGMAGVRLEVDVHLIAAGRGPLANLRRAVEEAGLALDAVCVQALASGLAVLTPEEEEMTVLLLDIGGGTTDVAVFRGGRLAHSAVVPLGGDHVTHDIAQLLKIPFEEAERVKRKYGAALPELADPELVLEINQEGGALGEVPAPELARIIRPRMREILHLARQSVDETLGPLEIQVNRVVLTGGGALLRGTDLLARQQYGLPVRVGKPQGVSGLTDVVASPAHAAAVGLVRYGASLPLKPQEAKRIREKPEDKPKGEGLWARIKEFLSNLF” belongs “failed”.
Take “MIIETERLLLRPFNEQDVDALYLMNSNPAMLKYIPTAPFTDREQARELFHNVILQDYQQRGFGRWAVEHKADNRVIGFCGPKFIPEFNEVEIGYRYFPEYWGKGIGTEAAEAALSVFPQFGIKQTIALILEGNLGSETVAKRVGMYWREHSEFMGHK”: the protein production entry is reported as “failed”.
To “MIIGLLNQKGGVGKTTLSVNLAASFARTGARVLLIDVDPQGSALDWAAAREGAPLFPVVGLPRATVHKEITQIGHNYDHIIIDGPPRVTDLARSALMASDFVLIPVQPSPYDIWAADGIVKLIDEARVYKENLKSAFVINRKIVNTAIGRDVGEALGVYPVHVLSANVAQRVIFAEAATQGKTVYEVDKQGLAAAEIEAVAAEIKELAQLEHHHHHH” belongs “not failed”; to “MIILIWMVIMRHVFRLNLWFVFLATFLFTPYLYAEPIKEPSRPKIALVLAGGGAKGAAHIGVLKALEELNIPIDIITGTSMGAYVGGLYATGKSASEIEAYLHTVDWYSGYQDEVGREEKNSRDKKYEDRFAINPSLGIRKEGVKSPKSAIQGQNMLKILRETSGNPVSVASFDDFPIRYRSVATDIVSMEEVVIDHGLLVDAMMASMSVPGALPPYEFEDKLLIDGGVTNNMPVELAKEMGADIVIAVDISSNYMTKEQIGSLFDVASQLTNFMVKRSTQEQAEFLTDKDILLQPRVGDIETTDFSSMPRAYQEGYDTVMTLKSRLQSLAVAPNEYAQYQNKIKQQSANVRLAQGAIIDKVEVENRSHYESDKLERFIQFEQGTLLSSDYIEDKIHALYATNRFETITYLVEEDNNENVLKVTAKEKEWGPNYLNFRFFLEEDFDTHSQYGLGASINFTDLNDYGAELRTNVELGTDKIFDATIHYPFYLNHHFFVQSNMMYSDKKRSISTSSLEDKEPNSSMSFYPVNLRDFTVDALFGVEATKDQQLKTGILYARGSHELTGLSAYGRTEYERLGATLEYNFDSLDSISLPTHGSLINARYLYAFDKVNSRDVEGSDHSEQYIDEFTAEALFARSIARHTFISSAEYGITNSDDYLVPVNPIELGGFNHLSGLPRNSLIGANKIYGRLTYRYRWFENDLGMFKTAVYLGASAEYGGLWSMKSTDISSAPLIFSGSLFGGIDTPIGPIILSYGRAENGLDSVYLIVGNVE”, “failed”.
To “MIINITILEDNESDFITLSDSIKKWAANTGILINIIWLNSYKKFIKSLPTLKCDLFFSDIELNCNNSFTGIDACKQLRESGYTGIIIFLTAFKEYVFDGYDVQAFNYLLKPINYGTINNCLDKFIHLFSLEHHHHHH” belongs “not failed”; to “MIIRGIRGARINNEIFNLGLKFQILNADVVATKKHVLHAINQAKTKKPIAKSFWMEILVRASGQRQIHEAIKIIGAKDGNVCLICEDEETFRKIYELIGGEIDDSVLEINEDKERLIREIFKIRGFGNVVERVLEKIALIELKKE”, “not failed”.
To “MIISLIAALAADRVIGMENAMPWHLPADLAWFKRNTLNKPVIMGRKTFESIGRPLPGRLNIVISSQPGTDERVTWAASIEEALAFAGNAEEVMVMGGGRVYKQFLDRANRMYLTHIDAEVGGDTHFPDYEPDEWESVFSEFHDADEANSHSYCFEILERR” belongs “not failed”; to “MIISNKSPISINNDPWEAYNDILEHNQLTLSNIEFTTTNLCNMRCSHCAVGYTLQTKDPDPLPMDIIYRRLDEIPNLRTLSITGGEPMFSKKSIKNVVKPLLKYAKHRGIYVQMNSNLTLPQDRYLDIAEY”, “failed”.
“MIIVHHLNNSRSQRILWLLEELGLPYEIKRYQRDPKTNLAPPELKAIHPLGKSPVIEDGPHVVIESGAIVDYLIRRHGDGRLQPDPASATYDEYVQWLHFAEGSAILPLMLNLYVGRLGDAGAPLHPRIHSELANYLGYLNEALGLTPYLLGDELSGADIQMSFIGEFAKMQGMLQPHPNLAAWVQRCQERPAYRQALEQGGEYSFAK”: the protein production result is given as “failed”.
To “MIIVYTTFPDWESAEKVVKTLLKERLIACANLREHRAFYWWEGKIEEDKEVGAILKTREDLWEELKERIKELHPYDVPAIIRIDVDDVNEDYLKWLIEETKK” belongs “not failed”; to “MIIYNIVYPMILILLYEYLAVNYFKGDKSITSSYYYVIVLIPFFIFTNIITMAYVAKDESLSKTAYRFLSAPIDNSAIVLSKIISCTVISWGCSLILLIISKVLLSVNFEGSTLKILILFFTENFMAAAIGIFLGIVMKNFKTIKGILNIPISILGVLGGCFFPVGALGRTFEKVSYISPFTWINRGIISEVYDKSQTILVGTILVTLVFGIIFSIGASILFNKEVFL”, “failed”.
The result for “MIKETVFKSFDTPAALEQQLANKIASQLQEAVDARGKASLVVSGGSTPLKLFELLSMKSIDWSDVYITLADERWVDVEDSASNERLVREHLLQNRAANAKFRGLKNMFSTAEAGADMTCESLSNFPRPFDVVVLGMGNDGHTCSWFPCSAELNDALTTQALCVATNPTTAPHGRITLSKNAILNSRQIYLHLVGEQKLSVYRQALENDDVNAMPIRAVLAQRKTPVDVFWSA” reads “failed”.
